Laboratory results as given in the supplement of paper PMC9732359.
± gives the uncertainty stated by the source.

Assay: protein stability index of a GFP-peptide fusion (yeast GPS) (PSI 1-4); higher = more stable; sorted into four equal gates, so the index is relative within each strain
Outline: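 For each peptide, the protein stability index sums the read frequency in every gate after multiplying it by the gate number. Read frequencies came from plasmids that were PCR-amplified from each gate and Illumina-sequenced, with reads assigned to strains by barcodes. The gates were four equal bins of GFP/Cherry fluorescence ratio applied to mid-log yeast in leucine-free medium carrying a pooled library of tiled 17-residue yeast protein peptides fused downstream of GFP on a Cherry-expressing plasmid.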

Sequence	protein stability index (doa10∆)	protein stability index (pdr5∆)	protein stability index (san1∆)	protein stability index (ubr1∆)
ENLEESFLSKHALYLAP [SSN2]	3.12 ± 0.056	3.31 ± 0.065	3.26 ± 0.044	3.28 ± 0.05
QPYEDRPFEGLFVISTE [RRP45]	2.96 ± 0.052	3.12 ± 0.048	3.11 ± 0.048	3.05 ± 0.038
FFLSIYFFYASRPEYSC [YJL039C/NUP192]	1.41 ± 0.056	1.35 ± 0.13	1.19 ± 0.11	1.38 ± 0.057
EIVRDILHTKESSNEAK [SIR4]	2.75 ± 0.067	2.96 ± 0.074	2.82 ± 0.06	2.75 ± 0.059
NSLAVRGKDCTVVISQK [SCL1]	2.64 ± 0.075	2.9 ± 0.062	2.94 ± 0.051	2.72 ± 0.045
SDKIPYVAPTKKEYIEL [SRB4]	2.77 ± 0.1	2.7 ± 0.1	2.32 ± 0.11	2.8 ± 0.12
AVARLKSMNKSAINQYN [SNF2]	1.81 ± 0.073	2.33 ± 0.076	2.34 ± 0.052	2.88 ± 0.032
SYRNAFTNVLTKYSDVL [YJL039C/NUP192]	2.12 ± 0.052	1.72 ± 0.059	2.36 ± 0.066	2.13 ± 0.048
KETIARVTGGMKVKADR [RPS14A]	3.29 ± 0.11	3.13 ± 0.12	3.31 ± 0.062	3.27 ± 0.073
QKNYADPEKDSINATAL [SIN4]	1.9 ± 0.042	1.71 ± 0.047	1.61 ± 0.087	1.59 ± 0.032
FCGKKTVKRGAAGIWTC [RPL43A]	1.79 ± 0.072	1.88 ± 0.071	2.19 ± 0.11	1.92 ± 0.059
ANNNINSASSAPTPAAP [SWI1]	2.99 ± 0.064	2.88 ± 0.077	3.05 ± 0.078	2.97 ± 0.064
EFFVQVLTHESLHRQQQ [DLS1]	2.99 ± 0.19	2.91 ± 0.14	2.81 ± 0.12	2.92 ± 0.13
SEVQRTMLELLNQLDGF [RPT6]	2.55 ± 0.1	2.5 ± 0.083	1.86 ± 0.15	2.51 ± 0.07
RFDAQTGSDREVQRILI [RPT3]	3.09 ± 0.12	3.08 ± 0.14	3.43 ± 0.1	3.4 ± 0.16
VQDIIGNGKLSEHFLYL [RPN1]	–	–	3.29 ± 0.26	–
AAAAVCEKWAASSWAKK [RPL14A]	2.52 ± 0.052	3.08 ± 0.089	2.56 ± 0.056	2.68 ± 0.058
VVVVLEEPSASIMVELK [SIR3]	2.95 ± 0.083	2.99 ± 0.16	3.28 ± 0.065	2.86 ± 0.2
VGRQDPKKHLSETADET [RPN11]	3.17 ± 0.078	2.96 ± 0.09	3.51 ± 0.066	2.92 ± 0.078
TKYFEPTSTENNKKVVG [ECM29]	2.87 ± 0.14	3.19 ± 0.17	2.82 ± 0.13	2.97 ± 0.062
LVRSIIAFDDLIENKIQ [RPN8]	1.94 ± 0.075	1.92 ± 0.12	2.45 ± 0.082	2.43 ± 0.099
KRPPEIMSTEAHVNKVT [SIR4]	2.99 ± 0.19	2.96 ± 0.086	2.92 ± 0.1	2.73 ± 0.12
QSYFSQLKFEGFALNSD [BRR2]	1.35 ± 0.05	1.26 ± 0.045	1.17 ± 0.094	1.43 ± 0.04
ETTTQFKATHILDFGPG [FAS1]	2.44 ± 0.081	2 ± 0.094	2.16 ± 0.084	2.25 ± 0.054
TKRWYKNAGLGFKTPKT [RPS11A]	3.32 ± 0.096	3.42 ± 0.12	3.05 ± 0.11	3.5 ± 0.082
SHFSLDQFITSLKCTDP [ITC1]	2.09 ± 0.073	2.42 ± 0.079	2.35 ± 0.076	2.12 ± 0.1
QNPLPTRFEVELEFIQS [SOH1]	2.38 ± 0.083	2.39 ± 0.073	2.29 ± 0.084	2.83 ± 0.078

Sequence	protein stability index (doa10∆)	protein stability index (pdr5∆)	protein stability index (san1∆)	protein stability index (ubr1∆)
ISDYQQLESIYFRILLP [SWI1]	2.24 ± 0.045	2.33 ± 0.037	2.06 ± 0.049	2.34 ± 0.065
IPDHLAELIPELYSFQQ [SNF12]	3.02 ± 0.077	2.94 ± 0.07	2.95 ± 0.05	2.93 ± 0.059
SGKSNTSNDASNKKETK [ITC1]	3.14 ± 0.076	3.26 ± 0.073	3.29 ± 0.058	3.18 ± 0.06
LTSVTNDICSVENYETS [SIR4]	2.18 ± 0.052	2.35 ± 0.057	1.88 ± 0.062	1.84 ± 0.059
AINVFPEGYKAKSISTS [RPO31]	2.03 ± 0.05	1.8 ± 0.057	2.27 ± 0.07	2.31 ± 0.059
SLKGYKIENSVQIGAEI [CSI1]	–	3.21 ± 0.2	3.25 ± 0.13	3.17 ± 0.17
ALGQDTEKMEEQLDLLS [MED11]	3.03 ± 0.099	3.09 ± 0.082	2.99 ± 0.073	3.31 ± 0.064
EECGRTIHRSFTICLND [CSN12]	2.93 ± 0.064	2.87 ± 0.065	2.84 ± 0.055	2.86 ± 0.044
VLVKWTRTIKQNNFHVL [RGR1]	–	1.3 ± 0.27	–	–
HGKPTKGSSLASAASEA [SSN8]	1.95 ± 0.08	2.42 ± 0.068	2.19 ± 0.088	2.73 ± 0.032
RENVKSKDEPVSKAVES [SIR4]	3.58 ± 0.15	3.73 ± 0.12	2.93 ± 0.19	3.31 ± 0.18
HGGSRYATKDGVAHLLN [QCR2]	3.13 ± 0.094	2.82 ± 0.055	3.3 ± 0.1	3.09 ± 0.072
TIQYDPPETKLPYPTYW [SNF5]	3.02 ± 0.049	2.93 ± 0.042	2.98 ± 0.039	2.94 ± 0.039
IFGSGFGSADDTYPYLT [FAS1]	2.3 ± 0.075	1.74 ± 0.059	1.73 ± 0.09	2.1 ± 0.078
KPFLKGLVNHRVGVKLK [SMX3]	2.76 ± 0.042	2.21 ± 0.041	2.07 ± 0.052	1.78 ± 0.031
RILKNVSPNDNNSANNN [YMR153W/NUP53]	2.75 ± 0.052	2.42 ± 0.048	2.29 ± 0.054	2.59 ± 0.044
SIPMGGQSINDSLKKLL [ARP9]	2.39 ± 0.06	2.46 ± 0.063	2.47 ± 0.08	2.61 ± 0.056
NQLSQTNKLLFKRVSQT [NUT1]	1.92 ± 0.042	1.36 ± 0.037	1.37 ± 0.083	1.38 ± 0.035
SLVFNRKLAVERAGHLL [PRE5]	2.08 ± 0.2	1.5 ± 0.18	1.43 ± 0.19	1.71 ± 0.21
SFQKIPLSRINENENFG [YML103C/NUP188]	2.88 ± 0.15	3.12 ± 0.097	2.97 ± 0.079	3.24 ± 0.1
NIDINNEDENIQLIKIL [YJL041W/NSP1]	2.52 ± 0.055	2.56 ± 0.071	2.99 ± 0.049	2.7 ± 0.042
GASINSMKANTSTNPNG [ARP7]	2.72 ± 0.089	3.19 ± 0.089	2.74 ± 0.067	2.93 ± 0.058
CKRELAFVKQKNDSLEK [YIL149C/MLP2]	3.26 ± 0.16	3.33 ± 0.17	–	3.43 ± 0.19
EEERRKKRESGVEEEEE [SNF2]	3.49 ± 0.079	3.35 ± 0.1	3.38 ± 0.11	3.46 ± 0.047
LKDIVGQTSRTVTPAPN [ITC1]	2.97 ± 0.064	3 ± 0.041	2.9 ± 0.049	2.95 ± 0.044
YSRSVDKEWVFAALSDS [SSN2]	1.44 ± 0.088	1.25 ± 0.06	1.41 ± 0.12	1.3 ± 0.043
